Patent publication US20050112121A1 (YALE UNIVERSITY, published 2005)

B1: Serrate (Drosophila), expression construct Ser-mtn (ligand, UniProt P18168 83-1407, looked up)
chain: AGNFELEILEISNTNSHLLNGYCCGMPAELRATKTIGCSPCTTAFRLCLKEYQTTEQGASISTGCSFGNATTKILGGSSFVLSDPGVGAIVLPFTFRWTKSFTLILQALDMYNTSYPDAERLIEETSYSGVILPSPEWKTLDHIGRNARITYRVRVQCAVTYYNTTCTTFCRPRDDQFGHYACGSEGQKLCLNGWQGVNCEEAICKAGCDPVHGKCDRPGECECRPGWRGPLCNECMVYPGCKHGSCNGSAWKCVCDTNWGGILCDQDLNFCGTHEPCKHGGTCENTAPDKYRCTCAEGLSGEQCEIVEHPCATRPCRNGGTCTLKTSNRTQAQVYRTSHGRSNMGRPVRRSSSMRSLDHLRPEGQALNGSSSPGLVSLGSLQLQQQLAPDFTCDCAAGWTGPTCEINIDECAGGPCEHGGTCIDLIGGFRCECPPEWHGDVCQVDVNECEAPHSAGIAANALLTTTATAIIGSNLSSTALLAALTSAVASTSLAIGPCINAKECRNQPGSFACICKEGWGGVTCAENLDDCVGQCRNGATCIDLVNDYRCACASGFKGRDCETDIDECATSPCRNGGECVDMVGKFNCICPLGYSGSLCEEAKENCTPSPCLEGHCLNTPEGYYCHCPPDRAGKHCEQLRPLCSQPPCNEGCFANVSLATSATTTTTTTTTATTTRKMAKPSGLPCSGHGSCEMSDVGTFCKCHVGHTGTFCEHNLNECSPNPCRNGGICLDGDGDFTCECMSGWTGKRCSERATGCYAGQCQNGGTCMPGAPDKALQPHCRCAPGWTGLFCAEAIDQCRGQPCHNGGTCESGAGWFRCVCAQGFSGPDCRINVNECSPQPCQGGATCIDGIGGYSCICPPGRHGLRCEILLSDPKSACQNASNTISPYTALNRSQNWLDIALTGRTEDDENCNACVCENGTSRCTNLWCGLPNCYKVDPLSKSSNLSGVCKQHEVCVPALSETCLSSPCNVRGDCRALEPSRRVAPPRLPAKSSCWPNQAVVNENCARLTILLALERVGKGASVEGLCSLVRVLLAAQLIKKPASTFGQDPGMLMVLCDLKTGTNDTVELTVSSSKLNDPQLPVAVGLLGELLSFRQLNGIQRRKELELQHAKLAALTSIVEVKLETARVADGSGHSLLIGVLCGVFIVLVGFSVFISLYWKQRLAYRTSSGMNLTPSLDALRHEEEKSNNLQNEENLRRYTNPLKGSTSSLRAATGMELSLNPAPELAASAASSSALHRSQPLFPPCDFERELDSSTGLKQAHKRSSQILLHKTQNSDMRKNTVGSLDSPRKDFGKRSINCKSMPPSSGDEGSDVLATTVMV
notes: whole, on cells

Tests used:
[1] = target: Notch (Drosophila), full length Notch expression construct #1 pMtNMg (Drosophila) (UniProt P07207); experiment: S2 cell aggregation, 24 hr, Notch+ cells alone
[2] = target: Delta (Drosophila), expression construct pMTDl1 (Drosophila) (UniProt P10041); experiment: S2 cell aggregation, 48 hr
[3] = target: Delta (Drosophila), expression construct pMTDl1 (Drosophila) (UniProt P10041); experiment: S2 cell aggregation at 4 C, 1-2 hr, Notch+ cells pretreated with preimmune mouse sera (control; one of three experiments)
[4] = target: Delta (Drosophila), expression construct pMTDl1 (Drosophila) (UniProt P10041); experiment: S2 cell aggregation, 24 hr
[5] = target: the molecule itself; experiment: S2 cell aggregation assay
Text: (§1) FIG. 2. Notch Expression Constructs and the Deletion Mapping of the Delta/Serrate Binding Domain. S2 cells in log phase growth were transiently transfected with the series of expression constructs shown; the drawings represent the predicted protein products of the various Notch deletion mutants created. All expression constructs were derived from construct #1 pMtNMg. Transiently transfected cells were mixed with Delta expressing cells from the stably transformed line L49-6-7 or with transiently transfected Serrate expressing cells, induced with CuSO₄, incubated under aggregation conditions and then scored for their ability to aggregate using specific antisera and immunofluorescence microscopy. Aggregates were defined as clusters of four or more cells containing both Notch and Delta/Serrate expressing cells. The values given for % Aggregation refer to the percentage of all Notch expressing cells found in such clusters either with Delta (Dl) (left column) or with Serrate (Ser) (right column). The various Notch deletion constructs are represented diagrammatically with splice lines indicating the ligation junctions. Each EGF repeat is denoted as a stippled rectangular box and numbers of the EGF repeats on either side of a ligation junction are noted. At the ligation junctions, partial EGF repeats produced by the various deletions are denoted by open boxes and closed brackets (for example see #23 ΔCla+EGF(10-12)). Constructs #3-13 represent the ClaI deletion series. As diagrammed, four of the ClaI sites, in repeats 7, 9, 17 and 26, break the repeat in the middle, immediately after the third cysteine (denoted by open box repeats; see FIG. 3 for further clarification), while the fifth and most 3′ site breaks neatly between EGF repeats 30 and 31 (denoted by closed box repeat 31; again see FIG. 3). In construct #15 split, EGF repeat 14 which carries the split point mutation, is drawn as a striped box. In construct #33 ΔCla+XEGF(10-13), the Xenopus Notch derived EGF repeats are distinguished from Drosophila repeats by a different pattern of shading. […]

[6] = target: T1, Notch (Drosophila), full length Notch expression construct #1 pMtNMg (Drosophila, UniProt P07207 53-2703); experiment: S2 cell aggregation assay
T1 construct: whole, on cells; also called intact Notch; Notch+ cells
Text: as §1

[7] = target: B1; experiment: S2 cell aggregation assay
Text: as §1

T1 sequence (P07207 53-2703): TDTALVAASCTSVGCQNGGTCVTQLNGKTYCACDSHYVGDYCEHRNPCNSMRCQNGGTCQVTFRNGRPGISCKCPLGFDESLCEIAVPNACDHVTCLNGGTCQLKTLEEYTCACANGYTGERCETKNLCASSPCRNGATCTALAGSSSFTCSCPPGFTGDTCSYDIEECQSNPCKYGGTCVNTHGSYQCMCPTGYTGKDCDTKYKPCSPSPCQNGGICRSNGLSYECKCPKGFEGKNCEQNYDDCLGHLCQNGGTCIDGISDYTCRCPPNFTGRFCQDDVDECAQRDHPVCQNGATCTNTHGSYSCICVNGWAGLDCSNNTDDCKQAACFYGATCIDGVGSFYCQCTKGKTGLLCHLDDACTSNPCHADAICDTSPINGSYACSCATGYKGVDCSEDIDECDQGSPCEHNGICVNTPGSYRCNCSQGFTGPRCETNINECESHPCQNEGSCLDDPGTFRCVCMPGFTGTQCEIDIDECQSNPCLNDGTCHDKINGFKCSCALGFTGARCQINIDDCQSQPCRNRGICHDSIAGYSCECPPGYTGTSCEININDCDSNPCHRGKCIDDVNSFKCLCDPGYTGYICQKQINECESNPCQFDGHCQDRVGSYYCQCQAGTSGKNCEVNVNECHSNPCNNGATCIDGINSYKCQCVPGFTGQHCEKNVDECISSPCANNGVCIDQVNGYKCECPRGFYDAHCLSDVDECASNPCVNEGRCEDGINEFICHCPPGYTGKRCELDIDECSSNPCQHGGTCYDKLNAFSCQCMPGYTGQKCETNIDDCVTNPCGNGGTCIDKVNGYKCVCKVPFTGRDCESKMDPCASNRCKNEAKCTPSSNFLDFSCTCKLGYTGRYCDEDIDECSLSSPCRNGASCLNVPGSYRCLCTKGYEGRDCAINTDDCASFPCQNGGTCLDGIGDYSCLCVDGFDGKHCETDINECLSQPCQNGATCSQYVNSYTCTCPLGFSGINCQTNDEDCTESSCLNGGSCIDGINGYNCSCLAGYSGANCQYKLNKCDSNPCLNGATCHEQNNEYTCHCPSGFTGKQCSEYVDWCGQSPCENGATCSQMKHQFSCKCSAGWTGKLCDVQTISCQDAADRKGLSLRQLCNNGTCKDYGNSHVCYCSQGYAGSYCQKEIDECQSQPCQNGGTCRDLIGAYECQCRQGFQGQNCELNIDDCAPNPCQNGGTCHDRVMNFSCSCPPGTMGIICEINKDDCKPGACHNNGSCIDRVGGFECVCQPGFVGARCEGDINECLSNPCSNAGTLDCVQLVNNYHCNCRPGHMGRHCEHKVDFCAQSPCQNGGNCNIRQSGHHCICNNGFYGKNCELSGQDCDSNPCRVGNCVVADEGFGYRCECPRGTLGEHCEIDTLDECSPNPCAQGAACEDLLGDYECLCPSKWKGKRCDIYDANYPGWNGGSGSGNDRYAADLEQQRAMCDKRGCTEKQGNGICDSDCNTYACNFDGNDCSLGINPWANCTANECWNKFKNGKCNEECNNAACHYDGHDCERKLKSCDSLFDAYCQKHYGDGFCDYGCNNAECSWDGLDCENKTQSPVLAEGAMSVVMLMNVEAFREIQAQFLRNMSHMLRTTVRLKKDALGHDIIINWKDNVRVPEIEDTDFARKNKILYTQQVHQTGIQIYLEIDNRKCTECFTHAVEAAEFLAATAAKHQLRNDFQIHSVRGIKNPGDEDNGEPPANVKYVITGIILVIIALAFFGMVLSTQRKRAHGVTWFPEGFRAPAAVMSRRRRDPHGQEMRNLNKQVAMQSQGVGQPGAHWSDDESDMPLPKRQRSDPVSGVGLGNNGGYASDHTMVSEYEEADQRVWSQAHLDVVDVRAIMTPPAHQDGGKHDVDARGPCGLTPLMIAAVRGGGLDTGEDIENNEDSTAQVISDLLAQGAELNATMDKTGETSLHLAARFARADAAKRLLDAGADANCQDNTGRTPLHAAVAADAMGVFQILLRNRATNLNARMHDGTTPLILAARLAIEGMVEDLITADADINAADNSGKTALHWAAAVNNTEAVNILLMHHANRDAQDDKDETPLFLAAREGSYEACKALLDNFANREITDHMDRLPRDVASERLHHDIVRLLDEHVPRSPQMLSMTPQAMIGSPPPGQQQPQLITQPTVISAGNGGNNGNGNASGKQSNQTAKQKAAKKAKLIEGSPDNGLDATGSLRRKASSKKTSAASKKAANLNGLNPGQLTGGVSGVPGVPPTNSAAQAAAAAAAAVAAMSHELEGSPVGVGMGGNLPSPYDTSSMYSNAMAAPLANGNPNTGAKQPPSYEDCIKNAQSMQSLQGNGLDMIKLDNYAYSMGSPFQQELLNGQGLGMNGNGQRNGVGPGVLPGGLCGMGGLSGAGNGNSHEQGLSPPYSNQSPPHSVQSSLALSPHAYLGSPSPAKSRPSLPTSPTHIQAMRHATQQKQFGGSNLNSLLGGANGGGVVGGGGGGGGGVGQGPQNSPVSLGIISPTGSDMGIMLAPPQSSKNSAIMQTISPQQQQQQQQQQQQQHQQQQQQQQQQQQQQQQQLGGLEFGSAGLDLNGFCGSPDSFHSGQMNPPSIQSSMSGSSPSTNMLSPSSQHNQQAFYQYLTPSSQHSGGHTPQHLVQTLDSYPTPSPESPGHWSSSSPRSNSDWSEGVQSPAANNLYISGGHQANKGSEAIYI

Molecule: Notch (Drosophila), full length Notch expression construct #1 pMtNMg, P07207 53-2703
- fraction of expressing cells found in clusters of four or more stained cells [1]: -0 to 5%
- degree of aggregation [2]: 63 to 71%
- % of Notch+ cells in Notch+-Delta+ cell aggregates [3]: 23%
- fraction of expressing cells found in clusters of four or more stained cells [4]: 32 to 54%

Molecule: B1
- binding result [5]: no binding

B2: Delta (Drosophila), expression construct pMTDl1 (ligand)
chain: QVHSSGSFELRLKYFSNDHGRDNEGRCCSGESDGATGKCLGSCKTRFRVCLKHYQATIDTTSQCTYGDVITPILGENSVNLTDAQRFQNKGFTNPIQFPFSFSWPGTFSLIVEAWHDTNNSGNARTNKLLIQRLLVQQVLEVSSEWKTNKSESQYTSLEYDFRVTCDLNYYGSGCAKFCRPRDDSFGHSTCSETGEIICLTGWQGDYCHIPKCAKGCEHGHCDKPNQCVCQLGWKGALCNECVLEPNCIHGTCNKPWTCICNEGWGGLYCNQDLNYCTNHRPCKNGGTCFNTGEGLYTCKCAPGYSGDDCENEIYSCDADVNPCQNGGTCIDEPHTKTGYKCHCANGWSGKMCEEKVLTCSDKPCHQGICRNVRPGLGSKGQGYQCECPIGYSGPNCDLQLDNCSPNPCINGGSCQPSGKCICPAGFSGTRCETNIDDCLGHQCENGGTCIDMVNQYRCQCVPGFHGTHCSSKVDLCLIRPCANGGTCLNLNNDYQCTCRAGFTGKDCSVDIDECSSGPCHNGGTCMNRVNSFECVCANGFRGKQCDEESYDSVTFDAHQYGATTQARADGLTNAQVVLIAVFSVAMPLVAVIAACVVFCMKRKRKRAQEKDDAEARKQNEQNAVATMHHNGSGVGVALASASLGGKTGSNSGLTFDGGNPNIIKNTWDKSVNNICASAAAAAAAAAAADECLMYGGYVASVADNNNANSDFCVAPLQRAKSQKQLNTDPTLMHRGSPAGSSAKGASGGGPGAAEGKRISVLGEGSYCSQRWPSLAAAGVAGACSSQLMAAASAAGSGAGTAQQQRSVVCGTPHM
notes: also called Delta+ cells; L49-6-7 stably transformed Delta expressing cell line
- binding result [6]: binds
- binding result [7]: no binding
